Data: IntAct's records for PubMed 20696397

B1: E3 ubiquitin-protein ligase RING2 (Homo sapiens), Q99496 (parent)
chain: MSQAVQTNGTQPLSKTWELSLYELQRTPQEAITDGLEIVVSPRSLHSELMCPICLDMLKNTMTTKECLHRFCADCIITALRSGNKECPTCRKKLVSKRSLRPDPNFDALISKIYPSRDEYEAHQERVLARINKHNNQQALSHSIEEGLKIQAMNRLQRGKKQQIENGSGAEDNGDSSHCSNASTHSNQEAGPSNKRTKTSDDSGLELDNNNAAMAIDPVMDGASEIELVFRPHPTLMEKDDSAQTRYIKTSGNATVDHLSKYLAVRLALEELRSKGESNQMNLDTASEKQYTIYIATASGQFTVLNGSFSLELVSEKYWKVNKPMELYYAPTKEHK
partner: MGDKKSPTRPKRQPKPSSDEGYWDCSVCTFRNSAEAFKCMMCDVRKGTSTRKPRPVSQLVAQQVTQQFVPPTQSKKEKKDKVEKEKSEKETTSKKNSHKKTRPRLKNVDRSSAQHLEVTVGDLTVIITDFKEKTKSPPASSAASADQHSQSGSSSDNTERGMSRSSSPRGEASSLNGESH
B2: Chromobox protein homolog 7 (Homo sapiens), O95931 (parent)
chain: MELSAIGEQVFAVESIRKKRVRKGKVEYLVKWKGWPPKYSTWEPEEHILDPRLVMAYEEKEERDRASGYRKRGPKPKRLLLQRLYSMDLRSSHKAKGKEKLCFSLTCPLGSGSPEGVVKAGAPELVDKGPLVPTLPFPLRKPRKAHKYLRLSRKKFPPRGPNLESHSHRRELFLQEPPAPDVLQAAGEWEPAAQPPEEEADADLAEGPPPWTPALPSSEVTVTDITANSITVTFREAQAAEGFFRDRSGKF

Variants of: B1
Settings: with YAF2, Q8IY57-1

effect of a mutation on the interaction | Variant
disrupting interaction | H258A
disrupting interaction | Y262A

Variants of: B2
Settings: with ring2_human RNF2, Q99496

effect of a mutation on the interaction | Variant
disrupting interaction | F234D
